This data set deals with ZFHD1-FKBP (ZF-FKBP fusion) (synthetic construct) (UniProt P08046+P14859). Nature of the data set: cell_activity. The conditions noted are these: GFP reporter in 293-ZF-FKBP cells with CEM87 recruiting BRD4; dose-dependent; indirect evidence of binding; no response in WT 293 cells.
Chain of ZFHD1-FKBP (ZF-FKBP fusion) (synthetic construct) (P08046 333-390, chain 1 of 2): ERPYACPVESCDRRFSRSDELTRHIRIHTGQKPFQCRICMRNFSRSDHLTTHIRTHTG
Chain of ZFHD1-FKBP (ZF-FKBP fusion) (synthetic construct) (P14859 378-439, chain 2 of 2): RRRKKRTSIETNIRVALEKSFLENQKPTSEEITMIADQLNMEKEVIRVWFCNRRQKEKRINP

The substance “ZF binding domain recognition sequence (ZFHD1 cognate site) upstream of JET promoter in AAV2-BD-JET-GFP” had an activity (fold activation) of over 10.
